From the supplement of paper PMC12042874
± gives the uncertainty stated by the source.

experiment: amyloid nucleation score (Sup35N fusion, yeast selection) (log enrichment); library NNK1; higher = more nucleation; inactive = no reads after selection
In short: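 Yeast lacking psi expressed peptides of 20 random codons fused to Sup35N, received 100 μM copper sulfate for 24 hours, and were then grown for 7 days at 30°C on medium lacking adenine and uracil. Illumina sequencing of input and output plasmid inserts provided the reads. Nucleation scores are DiMSum log enrichments of output over input, centred on the mode of non-aggregating sequences. Any sequence with under 100 input reads was excluded.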

| Substance | amyloid nucleation score |
| --- | --- |
| VEPLCGTRFACRLNAFKTTG | -0.097 ± 0.39 |
| VEVSWAAQST | 0.506 ± 0.91 |
| VEWASRDTHWRSLSLIIYLG | inactive |
| VFAMPYYSCGVLWNRGNW | 0.566 ± 0.48 |
| VFDAKGLNAHFNEVNVVYIR | 4.77 ± 0.062 |
| VFFGVVQLICDGVKEIFPNL | 4 ± 0.1 |
| VFFSYINCLRF | 0.218 ± 0.45 |
| VFGHIGIDRGI | 2.74 ± 0.22 |
| VFGSCWYLYFVYLPTNRFRM | -0.134 ± 0.3 |
| VFGVPVTCGGRPVFLIKVVG | -0.794 ± 1.4 |
| VFHVAKSRRVTHPSILISL | 1.53 ± 0.74 |
| VFLMLEVCLMV | 0.362 ± 0.72 |
| VFLSIGTERMILLIVWHCLN | -0.34 ± 0.57 |
| VFLVGMFLIRRVAVN | 0.72 ± 0.87 |
| VFNHTVPQSIRFYTYNRSSR | 3.87 ± 0.078 |
| VFRFRGCF | 1.62 ± 0.38 |
| VFTIWSMFFIVRFNLWWKCA | 0.081 ± 0.49 |
| VFVVDIFLFVMNCPYDPLSR | 2.6 ± 0.066 |
| VFYLCFTSQYYLSAGTVNAW | 4.99 ± 0.064 |
| VFYVFWYFRLCI | 0.035 ± 0.2 |
| VGFEGHS | -0.58 ± 0.6 |
| VGFYWNGWTTKGCWDNSWVL | 0.382 ± 0.55 |
| VGHSEIKMTMTRLADLGVCE | 0.612 ± 0.62 |
| VGHYGRETHLCSWCQIANGA | inactive |
| VGLERSWGEAKAVNMQRHGS | 0.346 ± 0.81 |

| Substance | amyloid nucleation score |
| --- | --- |
| VGLGYYNSSK | 0.91 ± 0.51 |
| VGPAANHIGHIVRWCRPGGP | 0.33 ± 0.5 |
| VGPRGSGPWGGVCLCGCSKE | 1.11 ± 0.51 |
| VGRHALGTSRGKRL | -0.307 ± 0.67 |
| VGSRLQRHGDGTGSLGLSWC | inactive |
| VGSTLYHLRKDMSTLSPGMY | 0.012 ± 0.34 |
| VGVGFIHNLGTLEIQVT | -0.359 ± 0.36 |
| VGVHRHSSWWEFAYCASRQ | -0.537 ± 0.71 |
| VGWLRFIRWYDPRLENWRTG | 0.235 ± 0.78 |
| VGWSMWNMIRMMVVPVAGPG | 0.253 ± 0.35 |
| VHLSGFVSLNLTVVSIRCIA | 2.06 ± 0.31 |
| VHNCMVFLLKFIDSRHFIVI | -0.292 ± 1.6 |
| VHSGTKEKGF | 1.05 ± 0.54 |
| VHSVLKWLRWDSIPCIVLIR | -0.487 ± 0.32 |
| VHVFSCLCPLLGSMIFLWMV | -0.871 ± 0.68 |
| VICSHLVSITYYLY | 3.59 ± 0.057 |
| VIHRIIDVLF | -0.06 ± 0.57 |
| VIHTRGNWSKRHVMIWISES | -0.016 ± 1.2 |
| VIKDFNDNYTGFRHYSKILI | -0.634 ± 1.7 |
| VIKFWSQ | 0.536 ± 0.77 |
| VILECNVAGVGELAQCQCAG | 0.986 ± 0.59 |
| VILFYSR | 4.49 ± 0.11 |
| VILRIIILYCLYHVWISGM | 0.177 ± 0.34 |
| VINCNWKFSFFFALVNEGGV | 6.554 ± 0.048 |
| VIQRTYCGRVLNLHALI | 0.245 ± 0.57 |

| Substance | amyloid nucleation score |
| --- | --- |
| VISGSDVLRYPRYSNAAFRT | inactive |
| VISINSVLACVYTIVMR | -0.1 ± 0.73 |
| VISMTKMLAWFTGLVYGYYG | -0.21 ± 0.35 |
| VITNHDDE | 0.51 ± 0.47 |
| VITTNLTCFALSYAAVFISK | 3.69 ± 0.078 |
| VIVCIEAAAETYSTGQSLDA | -0.15 ± 0.3 |
| VKGSGGGWFERNSGAPRKVF | 1.03 ± 0.38 |
| VKKLQVA | 1.11 ± 0.74 |
| VKLDIVFLMVFGPLCSESPF | 1.83 ± 0.24 |
| VKTINFISQLSCWCKRPFRK | 8.673 ± 0.06 |
| VKVIKLRHSLGTFFCSAQLQ | inactive |
| VKYLVIL | -0.618 ± 0.47 |
| VLCAGLPWYTELVRFSYWAD | -0.642 ± 0.56 |
| VLDVVVCSSWGDLKRNLRPC | 3.29 ± 0.11 |
| VLGRITAIFSVCGLVAVRDN | 5.63 ± 0.076 |
| VLIGIWLHLGHFEPALSM | -0.133 ± 0.53 |
| VLLGELIL | 0.434 ± 0.56 |
| VLLRKVKRLNRYHMSTGGL | inactive |
| VLRTGVH | 1.25 ± 0.66 |
| VLSAGVCFMTRVRSVFDGVH | 2.14 ± 0.24 |
| VLSRSMH | -0.206 ± 1.7 |
| VLVRAWTLDCCLLFVMMVVS | 0.558 ± 0.46 |
| VLWPLTISLWC | -0.236 ± 0.51 |
| VLYIGYYCQKSMEVLVTRSR | 1.06 ± 0.69 |
| VMADYVDNSHMVVMQTCVCM | 7.667 ± 0.061 |

| Substance | amyloid nucleation score |
| --- | --- |
| VMAPERST | -0.905 ± 1.6 |
| VMESTRNFSKVMSCSLFRFR | -0.684 ± 0.62 |
| VMFYSLHFCGVEDFFTGAER | 0.834 ± 0.57 |
| VMHLWLVYCHTTVS | 0.755 ± 0.73 |
| VMMRTSSARMGLLLDVTCGN | 0.058 ± 0.61 |
| VMRVAYNDT | 0.416 ± 0.36 |
| VMSKSNPIAV | 0.24 ± 0.54 |
| VMSSMMWYSYHMFHPYNAFE | 1.28 ± 0.79 |
| VMVRTCACFIR | 0.883 ± 0.51 |
| VNDLSCIGVGGDAKDNREGN | 1.34 ± 0.48 |
| VNGWARSMGGFLSCNSQRFG | -0.221 ± 0.65 |
| VNLNVFLRR | 0.059 ± 0.45 |
| VNPYMMLAQY | 0.748 ± 0.38 |
| VNSKFMGKY | 0.192 ± 0.39 |
| VNVFRNLFVTTDLWLSSTQN | -0.437 ± 0.66 |
| VNVITGWCAQELVVRAILEI | 0.341 ± 0.4 |
| VPENLVKMSEV | 0.279 ± 0.71 |
| VPMLDLGKVYNRSACP | inactive |
| VPNVGYI | 0.369 ± 0.54 |
| VPTSSFGGFVYVGVRVMCS | -0.487 ± 0.8 |
| VPYQCDKTKHFVRKVLILGA | 1.81 ± 0.58 |
| VQAAGYITLATVALWSTSMQ | 2.02 ± 0.31 |
| VQGLIQVSVYDRVAGCWHRI | -0.83 ± 0.66 |
| VQGYKVRLSGRNFGCNCASK | -1.85 ± 1.8 |
| VQGYTYGGCDGFMEWLGKLI | -0.295 ± 0.61 |

| Substance | amyloid nucleation score |
| --- | --- |
| VQIFEKLVQRSSVRQSENLK | 0.037 ± 0.93 |
| VQISQETFYNWLFVPAVSVP | -0.282 ± 0.38 |
| VQIWAAELMTDRRK | 0.436 ± 1.2 |
| VQPDDLARTGRLQLVLLVWN | -0.883 ± 0.92 |
| VRCLGWVDHERVRDLCIHSG | -0.414 ± 0.31 |
| VRCLLRYLLLESPQFINV | 1.7 ± 0.36 |
| VRDSGRIGMFKMGKV | -0.824 ± 0.88 |
| VRFFAPPWTWWLC | 0.087 ± 0.44 |
| VRKSVSTFT | 0.055 ± 0.37 |
| VRLCLVLLESDLLTGTVGIG | -1.02 ± 1.2 |
| VRLFV | 2.14 ± 0.65 |
| VRLNQLDNSLAVRSATNPGA | 0.524 ± 0.65 |
| VRMDHIRTKPPLHAIVAPQP | -1.68 ± 2.4 |
| VRMVQEMFRRRTLEELAMGA | 0.447 ± 0.68 |
| VRRGTVFAVGTCYIGRWFAV | 1.21 ± 0.97 |
| VRRIAWSNGWCRGIGGRSVL | -0.179 ± 0.39 |
| VRRQFVPKSYLCCESYFNEV | 0.32 ± 0.56 |
| VRSYDRMFYRDPQDLL | -0.077 ± 0.22 |
| VRTLLWSS | -1.55 ± 2.4 |
| VRYMWFAAGTREVTWSAFFM | -0.014 ± 0.32 |
| VSANICNRIVDGHFSLFYLN | -0.73 ± 0.37 |
| VSETAFLNTNKWGPKCLMWN | -1.42 ± 1 |
| VSGAKLAFN | -0.46 ± 1.6 |
| VSGLAGPEM | 0.412 ± 0.56 |
| VSGTVLTIEYCPY | 0.844 ± 0.27 |

| Substance | amyloid nucleation score |
| --- | --- |
| VSIFPFLTCLVVNLMLGGPV | 4.26 ± 0.11 |
| VSLLSVWFDTHYIWSITGVD | -0.247 ± 0.45 |
| VSLMCVALYKQISTRI | 0.102 ± 0.51 |
| VSLRAAWNLC | 0.606 ± 0.71 |
| VSMRN | 0.305 ± 0.21 |
| VSPDYMSYCIGVYLINLISV | 0.354 ± 0.59 |
| VSPMWVGYSRTSKLW | 0.036 ± 0.26 |
| VSQCS | 0.238 ± 0.54 |
| VSRNFVTKDSQLNGLSN | -1.52 ± 1.4 |
| VSRNIWYRWGNLLAVVKM | -0.025 ± 0.57 |
| VSRTCIQYCDDDDRSKSRSS | 0.253 ± 0.23 |
| VSTIFHIGFVLKFRDYRESE | 2.93 ± 0.18 |
| VSVFLGSGHRRARGW | -0.482 ± 0.47 |
| VSYFVHIC | 0.145 ± 0.56 |
| VSYYCAQALVLRIPEEWATE | -0.168 ± 1.3 |
| VTLGHHDRSCFYEDSVQTRD | 0.832 ± 0.49 |
| VTLTYNYVRRTHMRRDVVAK | 0.6 ± 0.34 |
| VTSWQIDKLPWASANSLFWL | 0.334 ± 0.27 |
| VTTYLG | -0.499 ± 0.74 |
| VTVLSSVLIL | 0.332 ± 0.27 |
| VTVTYIRCTR | 1.25 ± 0.63 |
| VVDVHVSFRCLFKMGV | 1.51 ± 0.4 |
| VVDVQALSWSRGADLSSW | 1.02 ± 0.68 |
| VVEFCCVQT | -1.53 ± 1.7 |
| VVEIWR | 0.655 ± 0.6 |

| Substance | amyloid nucleation score |
| --- | --- |
| VVGSMVRSGLGPQPMTS | 1.08 ± 0.68 |
| VVIVN | 0.439 ± 0.47 |
| VVLPWSFIWRCGVERQ | -0.812 ± 0.42 |
| VVMYRALTNHN | 0.949 ± 0.59 |
| VVQGVTCSLIMYSTRNCLFR | -0.444 ± 1.6 |
| VVRAFLTLILAVIDEENGSE | -1.42 ± 2.7 |
| VVRPAPRDKPTGPSLCLWGN | 0.086 ± 0.42 |
| VVSMSQEVEAPRAPHMAAFK | 0.25 ± 0.53 |
| VVSNVPVWTSGYYHHCCHRC | 0.856 ± 0.79 |
| VVSSRSIMGTVRMNEKVVAT | -0.563 ± 0.46 |
| VVTRWLASNNDGGIESLLIK | 0.132 ± 0.33 |
| VVVSLK | -0.916 ± 0.86 |
| VWARVMNAYFDTSH | -1.22 ± 2.4 |
| VWFCIYAFVHSYGLYVVSMV | -0.03 ± 0.31 |
| VWFFQNNVNFSDKQ | 8.011 ± 0.045 |
| VWIICQHGG | 4.09 ± 0.11 |
| VWLPYIFIDTSY | inactive |
| VWPAQGS | -0.325 ± 0.8 |
| VWRHGHNELRIRYAVSLYM | 0.608 ± 0.46 |
| VWRSFSGNITCMLFYNFPVR | -0.621 ± 0.95 |
| VWSKVLGSGRWSVVRGRAWR | 1.63 ± 0.21 |
| VWSNMCFLIDSI | -0.491 ± 0.3 |
| VWVHKAY | -0.021 ± 1.2 |
| VWYVLMSSSVTYYLSR | -0.075 ± 0.55 |
